This note sets out measurements from CN113621064A (FUZHOU MAIXIN BIOTECHNOLOGY DEV CO LTD, dated 2021).

The experiment has as its target T1, CD117蛋白 (c-kit, 干细胞因子受体) (human, UniProt P10721 26-976).
T1 construct: whole, on cells; Endogenous antigen in tissue sections (immunohistochemistry); The abstract names it as human; also called 人CD117抗原
The experiment is described as follows: immunohistochemistry on a tissue array of 28 gastrointestinal stromal tumours.

T1 sequence (P10721 26-976): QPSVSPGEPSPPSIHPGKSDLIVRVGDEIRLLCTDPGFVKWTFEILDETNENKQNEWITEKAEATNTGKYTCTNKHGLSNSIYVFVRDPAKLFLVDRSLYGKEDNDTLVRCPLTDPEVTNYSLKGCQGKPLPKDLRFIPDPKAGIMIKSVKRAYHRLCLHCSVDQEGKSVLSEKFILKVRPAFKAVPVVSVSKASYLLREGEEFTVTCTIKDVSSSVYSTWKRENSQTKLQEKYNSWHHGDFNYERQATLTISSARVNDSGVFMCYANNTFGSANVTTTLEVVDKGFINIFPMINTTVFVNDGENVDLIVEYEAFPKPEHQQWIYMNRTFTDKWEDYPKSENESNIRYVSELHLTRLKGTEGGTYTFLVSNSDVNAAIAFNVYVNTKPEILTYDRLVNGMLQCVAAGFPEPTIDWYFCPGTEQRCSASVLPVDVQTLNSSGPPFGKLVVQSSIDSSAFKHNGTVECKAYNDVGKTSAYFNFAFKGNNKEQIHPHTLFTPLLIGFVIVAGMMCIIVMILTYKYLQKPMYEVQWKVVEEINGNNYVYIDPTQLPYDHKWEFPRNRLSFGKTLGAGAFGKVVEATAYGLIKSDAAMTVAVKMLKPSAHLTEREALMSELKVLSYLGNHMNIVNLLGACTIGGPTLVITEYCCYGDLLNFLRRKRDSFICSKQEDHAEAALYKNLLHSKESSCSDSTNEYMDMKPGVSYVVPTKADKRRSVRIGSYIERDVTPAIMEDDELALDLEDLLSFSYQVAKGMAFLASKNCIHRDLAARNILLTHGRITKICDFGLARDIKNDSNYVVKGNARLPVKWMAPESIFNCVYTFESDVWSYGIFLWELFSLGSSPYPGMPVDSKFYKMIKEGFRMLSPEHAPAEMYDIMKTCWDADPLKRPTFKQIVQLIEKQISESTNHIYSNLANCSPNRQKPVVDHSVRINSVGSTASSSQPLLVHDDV

B1: 抗CD117蛋白单克隆抗体 (小鼠杂交瘤细胞株33G5分泌, CGMCC NO 21977) (antibody, V domains shown)
VH: EVKLQESGPSLVQPGGSMRLSCVASGFIFSNYWINWVRQSPEMGLEWIAQVKLKSDNYATHYAGSVKGRFTISRDDSKSSVYLQMNNLRPEDTGIYFCLGRLDVWGAGTTVTVSS
VL: DIMLTQSPLSLSVTIGQPASISCKSSQSLLYTDGKTYLNWLLQRPGQSPKLLIYLVSKLDSGVPDRFSGSGSGTDFTLKISRVEAEDLGVYYCLQATHFPQTFGGGTKLEIK
notes: also called CD117(33G5); 33G5分泌的CD117抗体
For B1, the binding result is given as “binds”.
